Drawing on paper PMC5419085, this text covers percent inhibition of ADAMTS-5 binding to LRP1 for 1 substance.

The target in this test is full-length human LRP1 (low-density lipoprotein receptor-related protein 1) (human). The test can be described thus: ELISA; full-length human LRP1 (5 nM) coated on microtiter plates; biotinylated ADAMTS-5-2 (6 nM) with or without antibodies or RAP (each 100 nM); detected by AP-conjugated streptavidin; TNC buffer, 2 h, room temperature; bound amount as % of that without antibodies or RAP.

“receptor-associated protein (RAP) (from UniProt P30533 35-357) (natural protein)” displayed a percent inhibition of ADAMTS-5 binding to LRP1 at 100 nM of 75%.
